# How the values were obtained:
# Assay in all cases: cell-based or functional assay
# [1] = biological target: S protein of SARS-CoV-2 Beta (B.1.351) (SARS-CoV-2 Beta (B.1.351))
# [2] = biological target: S protein of SARS-CoV-2 Omicron BA.2.2 (SARS-CoV-2 BA.2.2)
# [3] = biological target: S protein of SARS-CoV-2 Lambda (SARS-CoV-2 Lambda)
# [4] = biological target: S protein of SARS-CoV-2 Omicron BF.7 (SARS-CoV-2 BF.7)
# [5] = biological target: S protein of SARS-CoV-2 Alpha (B.1.1.7) (SARS-CoV-2 Alpha (B.1.1.7))
# [6] = biological target: S protein of SARS-CoV-2 Omicron BA.1 (SARS-CoV-2 BA.1)
# [7] = biological target: S protein of SARS-CoV-2 Omicron BA.2.12.1 (SARS-CoV-2 BA.2.12.1)
# [8] = biological target: S protein of SARS-CoV-2 Omicron XBB (SARS-CoV-2 XBB)
# [9] = biological target: S protein of SARS-CoV-2 Omicron BA.2 (SARS-CoV-2 BA.2)
# [10] = biological target: S protein of SARS-CoV-2 Omicron BQ.1 (SARS-CoV-2 BQ.1)
# [11] = biological target: S protein of SARS-CoV-2 Gamma (P.1) (SARS-CoV-2 Gamma (P.1))
# [12] = biological target: S protein of SARS-CoV-2 Omicron BA.4.6 (SARS-CoV-2 BA.4.6)
# [13] = biological target: S protein of SARS-CoV-2 Omicron BA.5 (SARS-CoV-2 BA.5)
# [14] = biological target: S protein of SARS-CoV-2 Omicron BA.2.75 (SARS-CoV-2 BA.2.75)
# [15] = biological target: S protein of SARS-CoV-2 Delta (B.1.617.2) (SARS-CoV-2 Delta (B.1.617.2))
# [16] = biological target: S protein of SARS-CoV-2 Omicron BA.3 (SARS-CoV-2 BA.3)
# [17] = biological target: S protein of SARS-CoV-2 Omicron BA.2.9 (SARS-CoV-2 BA.2.9)
substance,measurement,setting,value
AL5E protein (ACE2-linker-EK1 fusion protein with (GGGGS)5 linker),"EC50, inactivation of pseudovirus (Caco-2, luciferase)",[1],1.57 nM
same,"Fold enhancement of AL5E over ACE2 (EC50, pseudovirus inactivation)",[1],78.4 fold
same,"Fold enhancement of AL5E over ACE2 (IC50, pseudovirus inhibition)",[1],94.5 fold
same,"IC50, inhibition of pseudovirus infection (Caco-2, luciferase)",[1],0.17 nM
same,"EC50, inactivation of pseudovirus (Caco-2, luciferase)",[2],3.35 nM
same,"Fold enhancement of AL5E over ACE2 (EC50, pseudovirus inactivation)",[2],142 fold
same,"Fold enhancement of AL5E over ACE2 (IC50, pseudovirus inhibition)",[2],59.3 fold
same,"Fold of AL5E over ACE2 (IC50, live BA.2.2 virus inhibition)",[2],44 fold
same,"IC50, inhibition of pseudovirus infection (Caco-2, luciferase)",[2],0.2 nM
same,"EC50, inactivation of pseudovirus (Caco-2, luciferase)",[3],2.75 nM
same,"Fold enhancement of AL5E over ACE2 (EC50, pseudovirus inactivation)",[3],42 fold
same,"Fold enhancement of AL5E over ACE2 (IC50, pseudovirus inhibition)",[3],427 fold
same,"IC50, inhibition of pseudovirus infection (Caco-2, luciferase)",[3],0.03 nM
same,"EC50, inactivation of pseudovirus (Caco-2, luciferase)",[4],1.99 nM
same,"Fold enhancement of AL5E over ACE2 (EC50, pseudovirus inactivation)",[4],96.3 fold
same,"Fold enhancement of AL5E over ACE2 (IC50, pseudovirus inhibition)",[4],362 fold
same,"IC50, inhibition of pseudovirus infection (Caco-2, luciferase)",[4],0.28 nM
same,"EC50, inactivation of pseudovirus (Caco-2, luciferase)",[5],8.72 nM
same,"Fold enhancement of AL5E over ACE2 (EC50, pseudovirus inactivation)",[5],27.9 fold
same,"Fold enhancement of AL5E over ACE2 (IC50, pseudovirus inhibition)",[5],47.7 fold
same,"IC50, inhibition of pseudovirus infection (Caco-2, luciferase)",[5],0.13 nM
same,"EC50, inactivation of pseudovirus (Caco-2, luciferase)",[6],1.29 nM
same,"Fold enhancement of AL5E over ACE2 (EC50, pseudovirus inactivation)",[6],63.7 fold
same,"Fold enhancement of AL5E over ACE2 (IC50, pseudovirus inhibition)",[6],624 fold
same,"IC50, inhibition of pseudovirus infection (Caco-2, luciferase)",[6],0.03 nM
same,"EC50, inactivation of pseudovirus (Caco-2, luciferase)",[7],1.94 nM
same,"Fold enhancement of AL5E over ACE2 (EC50, pseudovirus inactivation)",[7],39.2 fold
same,"Fold enhancement of AL5E over ACE2 (IC50, pseudovirus inhibition)",[7],176 fold
same,"IC50, inhibition of pseudovirus infection (Caco-2, luciferase)",[7],0.06 nM
same,"EC50, inactivation of pseudovirus (Caco-2, luciferase)",[8],4.69 nM
same,"Fold enhancement of AL5E over ACE2 (EC50, pseudovirus inactivation)",[8],45.2 fold
same,"Fold enhancement of AL5E over ACE2 (IC50, pseudovirus inhibition)",[8],74.5 fold
same,"IC50, inhibition of pseudovirus infection (Caco-2, luciferase)",[8],0.17 nM
same,"EC50, inactivation of pseudovirus (Caco-2, luciferase)",[9],3.04 nM
same,"Fold enhancement of AL5E over ACE2 (EC50, pseudovirus inactivation)",[9],108 fold
same,"Fold enhancement of AL5E over ACE2 (IC50, pseudovirus inhibition)",[9],96.8 fold
same,"IC50, inhibition of pseudovirus infection (Caco-2, luciferase)",[9],0.13 nM
same,"EC50, inactivation of pseudovirus (Caco-2, luciferase)",[10],3.73 nM
same,"Fold enhancement of AL5E over ACE2 (EC50, pseudovirus inactivation)",[10],40 fold
same,"Fold enhancement of AL5E over ACE2 (IC50, pseudovirus inhibition)",[10],136 fold
same,"IC50, inhibition of pseudovirus infection (Caco-2, luciferase)",[10],0.16 nM
same,"EC50, inactivation of pseudovirus (Caco-2, luciferase)",[11],2.7 nM
same,"Fold enhancement of AL5E over ACE2 (EC50, pseudovirus inactivation)",[11],32.8 fold
same,"Fold enhancement of AL5E over ACE2 (IC50, pseudovirus inhibition)",[11],68.5 fold
same,"IC50, inhibition of pseudovirus infection (Caco-2, luciferase)",[11],0.22 nM
same,"EC50, inactivation of pseudovirus (Caco-2, luciferase)",[12],2.28 nM
same,"Fold enhancement of AL5E over ACE2 (EC50, pseudovirus inactivation)",[12],508 fold
same,"Fold enhancement of AL5E over ACE2 (IC50, pseudovirus inhibition)",[12],70.8 fold
same,"IC50, inhibition of pseudovirus infection (Caco-2, luciferase)",[12],0.93 nM
same,"EC50, inactivation of pseudovirus (Caco-2, luciferase)",[13],2.27 nM
same,"Fold enhancement of AL5E over ACE2 (EC50, pseudovirus inactivation)",[13],148 fold
same,"Fold enhancement of AL5E over ACE2 (IC50, pseudovirus inhibition)",[13],382 fold
same,"IC50, inhibition of pseudovirus infection (Caco-2, luciferase)",[13],0.04 nM
same,"EC50, inactivation of pseudovirus (Caco-2, luciferase)",[14],1.91 nM
same,"Fold enhancement of AL5E over ACE2 (EC50, pseudovirus inactivation)",[14],354 fold
same,"Fold enhancement of AL5E over ACE2 (IC50, pseudovirus inhibition)",[14],51 fold
same,"IC50, inhibition of pseudovirus infection (Caco-2, luciferase)",[14],0.52 nM
same,"EC50, inactivation of pseudovirus (Caco-2, luciferase)",[15],8.21 nM
same,"Fold enhancement of AL5E over ACE2 (EC50, pseudovirus inactivation)",[15],73.7 fold
same,"Fold enhancement of AL5E over ACE2 (IC50, pseudovirus inhibition)",[15],30.3 fold
same,"IC50, inhibition of pseudovirus infection (Caco-2, luciferase)",[15],0.16 nM
same,"EC50, inactivation of pseudovirus (Caco-2, luciferase)",[16],2.26 nM
same,"Fold enhancement of AL5E over ACE2 (EC50, pseudovirus inactivation)",[16],23.1 fold
same,"Fold enhancement of AL5E over ACE2 (IC50, pseudovirus inhibition)",[16],32.5 fold
same,"IC50, inhibition of pseudovirus infection (Caco-2, luciferase)",[16],0.2 nM
same,"EC50, inactivation of pseudovirus (Caco-2, luciferase)",[17],8.62 nM
same,"Fold enhancement of AL5E over ACE2 (EC50, pseudovirus inactivation)",[17],47.2 fold
same,"Fold enhancement of AL5E over ACE2 (IC50, pseudovirus inhibition)",[17],95.4 fold
same,"IC50, inhibition of pseudovirus infection (Caco-2, luciferase)",[17],0.08 nM
AL6E protein (ACE2-linker-EK1 fusion protein with (GGGGS)6 linker),"IC50, inhibition of pseudovirus infection (Caco-2, luciferase)",[1],0.25 nM
same,"IC50, inhibition of pseudovirus infection (Caco-2, luciferase)",[2],0.24 nM
same,"IC50, inhibition of pseudovirus infection (Caco-2, luciferase)",[3],0.07 nM
same,"IC50, inhibition of pseudovirus infection (Caco-2, luciferase)",[4],1.01 nM
same,"IC50, inhibition of pseudovirus infection (Caco-2, luciferase)",[5],0.25 nM
same,"IC50, inhibition of pseudovirus infection (Caco-2, luciferase)",[6],0.11 nM
same,"IC50, inhibition of pseudovirus infection (Caco-2, luciferase)",[7],0.17 nM
same,"IC50, inhibition of pseudovirus infection (Caco-2, luciferase)",[8],0.23 nM
same,"IC50, inhibition of pseudovirus infection (Caco-2, luciferase)",[9],0.21 nM
same,"IC50, inhibition of pseudovirus infection (Caco-2, luciferase)",[10],0.86 nM
same,"IC50, inhibition of pseudovirus infection (Caco-2, luciferase)",[11],0.28 nM
same,"IC50, inhibition of pseudovirus infection (Caco-2, luciferase)",[12],1.96 nM
same,"IC50, inhibition of pseudovirus infection (Caco-2, luciferase)",[13],0.13 nM
same,"IC50, inhibition of pseudovirus infection (Caco-2, luciferase)",[14],1.4 nM
same,"IC50, inhibition of pseudovirus infection (Caco-2, luciferase)",[15],0.31 nM
same,"IC50, inhibition of pseudovirus infection (Caco-2, luciferase)",[16],0.27 nM
same,"IC50, inhibition of pseudovirus infection (Caco-2, luciferase)",[17],0.09 nM
AL7E protein (ACE2-linker-EK1 fusion protein with (GGGGS)7 linker),"IC50, inhibition of pseudovirus infection (Caco-2, luciferase)",[1],0.24 nM
same,"IC50, inhibition of pseudovirus infection (Caco-2, luciferase)",[2],0.28 nM
same,"IC50, inhibition of pseudovirus infection (Caco-2, luciferase)",[3],0.27 nM
same,"IC50, inhibition of pseudovirus infection (Caco-2, luciferase)",[4],0.93 nM
same,"IC50, inhibition of pseudovirus infection (Caco-2, luciferase)",[5],0.21 nM
same,"IC50, inhibition of pseudovirus infection (Caco-2, luciferase)",[6],0.14 nM
same,"IC50, inhibition of pseudovirus infection (Caco-2, luciferase)",[7],0.23 nM
same,"IC50, inhibition of pseudovirus infection (Caco-2, luciferase)",[8],0.94 nM
same,"IC50, inhibition of pseudovirus infection (Caco-2, luciferase)",[9],0.12 nM
same,"IC50, inhibition of pseudovirus infection (Caco-2, luciferase)",[10],1.14 nM
same,"IC50, inhibition of pseudovirus infection (Caco-2, luciferase)",[11],0.25 nM
same,"IC50, inhibition of pseudovirus infection (Caco-2, luciferase)",[12],0.56 nM
same,"IC50, inhibition of pseudovirus infection (Caco-2, luciferase)",[13],0.31 nM
same,"IC50, inhibition of pseudovirus infection (Caco-2, luciferase)",[14],1.04 nM
same,"IC50, inhibition of pseudovirus infection (Caco-2, luciferase)",[15],0.31 nM
same,"IC50, inhibition of pseudovirus infection (Caco-2, luciferase)",[16],0.11 nM
same,"IC50, inhibition of pseudovirus infection (Caco-2, luciferase)",[17],0.21 nM
EK1 polypeptide,"IC50, inhibition of pseudovirus infection (Caco-2, luciferase)",[1],257 nM
same,"IC50, inhibition of pseudovirus infection (Caco-2, luciferase)",[2],162 nM
same,"IC50, inhibition of pseudovirus infection (Caco-2, luciferase)",[3],995 nM
same,"IC50, inhibition of pseudovirus infection (Caco-2, luciferase)",[4],584 nM
same,"IC50, inhibition of pseudovirus infection (Caco-2, luciferase)",[5],268 nM
same,"IC50, inhibition of pseudovirus infection (Caco-2, luciferase)",[6],70.5 nM
same,"IC50, inhibition of pseudovirus infection (Caco-2, luciferase)",[7],342 nM
same,"IC50, inhibition of pseudovirus infection (Caco-2, luciferase)",[8],233 nM
same,"IC50, inhibition of pseudovirus infection (Caco-2, luciferase)",[9],297 nM
same,"IC50, inhibition of pseudovirus infection (Caco-2, luciferase)",[10],136 nM
same,"IC50, inhibition of pseudovirus infection (Caco-2, luciferase)",[11],277 nM
same,"IC50, inhibition of pseudovirus infection (Caco-2, luciferase)",[12],473 nM
same,"IC50, inhibition of pseudovirus infection (Caco-2, luciferase)",[13],568 nM
same,"IC50, inhibition of pseudovirus infection (Caco-2, luciferase)",[14],331 nM
same,"IC50, inhibition of pseudovirus infection (Caco-2, luciferase)",[15],150 nM
same,"IC50, inhibition of pseudovirus infection (Caco-2, luciferase)",[16],136 nM
same,"IC50, inhibition of pseudovirus infection (Caco-2, luciferase)",[17],199 nM
